Data published in US12528864 (GlaxoSmithKline, dated 2026).

How the values were obtained:
[1] = target: T1, blood derived cynomolgus monkey CD96v2 on transiently transfected HEK cells (cynomolgus monkey); test: flow cytometry on transiently transfected HEK cells; upper end of range, n = 3
T1 construct: also called Blood derived Cyno CD96v2

[2] = target: T2, human CD96v2 expressed on cells (CHO cells; transiently transfected HEK cells) (human, UniProt P40200-2 22-569); test: as above
T2 construct: whole, on cells; the cell is named under assay; also called CHO-huCD96; hCD96v2
T2 sequence (looked up): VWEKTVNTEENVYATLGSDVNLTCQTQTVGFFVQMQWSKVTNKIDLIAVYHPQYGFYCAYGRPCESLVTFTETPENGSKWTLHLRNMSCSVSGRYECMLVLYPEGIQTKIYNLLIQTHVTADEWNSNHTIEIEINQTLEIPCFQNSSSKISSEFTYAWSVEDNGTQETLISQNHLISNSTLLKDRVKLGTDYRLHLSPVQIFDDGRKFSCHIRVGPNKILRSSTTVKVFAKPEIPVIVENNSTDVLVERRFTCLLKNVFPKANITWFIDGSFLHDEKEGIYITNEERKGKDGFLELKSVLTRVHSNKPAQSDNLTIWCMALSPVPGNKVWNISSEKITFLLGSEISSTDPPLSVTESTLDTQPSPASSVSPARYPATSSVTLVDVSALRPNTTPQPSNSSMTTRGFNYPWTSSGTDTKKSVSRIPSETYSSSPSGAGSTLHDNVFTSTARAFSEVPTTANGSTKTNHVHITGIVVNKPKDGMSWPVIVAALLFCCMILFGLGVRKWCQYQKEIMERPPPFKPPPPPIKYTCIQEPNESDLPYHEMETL

[3] = target: T3, human CD96v1 on transiently transfected HEK cells (human, UniProt P40200 22-585); test: as above
T3 construct: whole, on cells
T3 sequence (looked up): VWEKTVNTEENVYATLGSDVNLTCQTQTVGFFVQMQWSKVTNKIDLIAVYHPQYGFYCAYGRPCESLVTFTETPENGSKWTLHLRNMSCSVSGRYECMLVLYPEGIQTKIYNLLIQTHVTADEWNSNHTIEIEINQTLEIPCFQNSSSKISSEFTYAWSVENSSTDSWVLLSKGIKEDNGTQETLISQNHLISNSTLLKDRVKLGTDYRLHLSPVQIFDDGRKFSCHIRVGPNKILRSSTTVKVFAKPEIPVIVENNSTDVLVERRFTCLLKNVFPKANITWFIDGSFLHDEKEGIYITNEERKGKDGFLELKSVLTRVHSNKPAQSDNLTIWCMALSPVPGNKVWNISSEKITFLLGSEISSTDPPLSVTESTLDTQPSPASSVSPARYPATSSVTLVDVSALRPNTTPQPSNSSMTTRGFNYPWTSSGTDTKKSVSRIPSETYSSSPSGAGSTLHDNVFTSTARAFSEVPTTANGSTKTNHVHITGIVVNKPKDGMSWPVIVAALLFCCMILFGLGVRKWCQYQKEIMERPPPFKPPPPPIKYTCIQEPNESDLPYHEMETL

[4] = target: T4, cynomolgus monkey CD96v1 on transiently transfected HEK cells (cynomolgus monkey); test: as above
T4 construct: whole, on cells; also called Cyno CD96v1

[5] = target: T5, cynomolgus monkey CD96v2 expressed on cells (CHO cells; transiently transfected HEK cells) (cynomolgus monkey, UniProt A0A2K5TWV6 22-569); test: as above
T5 construct: the cell is named under assay; also called CHO-cyCD96; Cyno CD96v2
T5 sequence: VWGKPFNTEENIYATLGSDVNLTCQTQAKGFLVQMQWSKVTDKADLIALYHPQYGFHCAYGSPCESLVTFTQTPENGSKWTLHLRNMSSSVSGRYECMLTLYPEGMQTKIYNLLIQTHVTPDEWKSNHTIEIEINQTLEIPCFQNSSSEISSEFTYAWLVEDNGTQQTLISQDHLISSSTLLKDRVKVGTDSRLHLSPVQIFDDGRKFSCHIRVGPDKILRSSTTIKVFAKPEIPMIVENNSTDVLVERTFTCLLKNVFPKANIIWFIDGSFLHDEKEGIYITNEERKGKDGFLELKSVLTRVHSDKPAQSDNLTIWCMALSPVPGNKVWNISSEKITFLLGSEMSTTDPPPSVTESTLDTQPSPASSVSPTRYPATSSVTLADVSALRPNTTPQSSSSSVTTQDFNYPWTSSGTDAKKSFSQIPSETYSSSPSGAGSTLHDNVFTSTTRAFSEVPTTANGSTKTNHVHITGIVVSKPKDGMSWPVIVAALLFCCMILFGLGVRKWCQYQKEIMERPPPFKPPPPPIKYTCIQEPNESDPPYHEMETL

[6] = target: T6, recombinant cynomolgus monkey CD96v2 (cynomolgus monkey, UniProt A0A2K5TWV6 22-487, biotinylated (site not stated)); test: MSD-SET solution equilibrium titration, antibody titrated against constant biotinylated CD96, free antigen detected
T6 construct: Soluble recombinant protein used in MSD-SET; also called cynomolgus monkey biotinylated CD96 protein
T6 sequence: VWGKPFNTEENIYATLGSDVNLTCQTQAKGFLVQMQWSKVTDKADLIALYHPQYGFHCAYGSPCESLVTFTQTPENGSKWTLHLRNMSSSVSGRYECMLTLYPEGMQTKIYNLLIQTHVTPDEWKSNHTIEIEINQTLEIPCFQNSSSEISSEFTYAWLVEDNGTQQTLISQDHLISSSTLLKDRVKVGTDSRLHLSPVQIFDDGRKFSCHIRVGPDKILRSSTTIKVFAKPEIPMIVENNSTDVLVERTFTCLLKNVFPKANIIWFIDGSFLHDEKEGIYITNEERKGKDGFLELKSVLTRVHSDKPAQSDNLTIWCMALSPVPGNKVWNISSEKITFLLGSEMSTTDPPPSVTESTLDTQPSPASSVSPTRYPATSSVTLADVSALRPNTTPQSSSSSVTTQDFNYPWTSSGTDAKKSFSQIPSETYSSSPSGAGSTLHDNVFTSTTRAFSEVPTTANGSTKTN

[7] = target: T5, cynomolgus monkey CD96v2 expressed on …; test: flow cytometry on CHO cells expressing cynomolgus CD96v2
[8] = target: T4, cynomolgus monkey CD96v1 on transiently …; test: flow cytometry on transiently transfected HEK cells; geometric mean, n = 3
[9] = target: T1, blood derived cynomolgus monkey CD96v2 …; test: flow cytometry on transiently transfected HEK cells (Cyno blood derived CD96v2)

EC50 [1]: 10.2 nM
EC50 [2]: 8.78 nM
EC50 [3]: 8.89 nM
EC50 [4]: 12.3 nM
EC50 [5]: 11.2 nM
IC50 (read off the curve) [6]: ~0.4 nM
EC50 [7]: 0.02 nM
EC50 [8]: 9.17 nM
EC50 (read off the curve) [9]: ~9 nM
B1: 42Y073-86F08-66 (antibody)
heavy: not shown
light: DIQLTQSPSSLSASVGDRVTITCRASQSISSYLNWYQQKPGKAPKLLIYAASSLQSGVPSRFSGSGSGTDFTLTISSLQPEDFATYYCQQVLHTITFGGGTKVEIKRTVAAPSVFIFPPSDEQLKSGTASVVCLLNNFYPREAKVQWKVDNALQSGNSQESVTEQDSKDSTYSLSSTLTLSKADYEKHKVYACEVTHQGLSSPVTKSFNRGEC
notes: also called GSK 6097608; GSK6097608
